Test results: US5837813

Legend:
[1] = molecular target: human fibronectin (human) (UniProt P02751)
[2] = molecular target: human fibronectin (human) (UniProt P02751); experiment: solid-phase competition, 125I-fibronectin on coated fibronectin
[3] = molecular target: human fibronectin (human) (UniProt P02751); experiment: solid-phase competition, 125I-14 kDa fragment on coated fibronectin

- ^125 I-fibronectin bound to IMR-90 cells after one hour [1]: 25%
- IC50 [2]: 200 to 300 µM
- fold less potent than P1 [3]: 100 fold
Binder: LISIQQYGHQEVTRFDFTTTSTSTPVTSNTV [polypeptide P3]
